Blank lines part the entries; values can stand above or below the substance they belong to.
Columns and labels:
[1] = molecular target: AcSpN R107E mutant (Nephila antipodiana) (Nephila antipodiana); experiment: AUC; sedimentation velocity, 1.5 mg/mL protein, 20 mM phosphate, 0 mM NaCl, pH 7.0-8.0 (mutants and MaSpN at pH 7.0), 24 °C; self-association
[2] = molecular target: N-terminal domain of aciniform silk protein (AcSpN) from Nephila antipodiana, construct S15-E153 (renumbered S4-E142) (Nephila antipodiana); experiment: AUC; sedimentation velocity, 1.5 mg/mL protein, 20 mM phosphate, 150 mM NaCl, pH < 7.0, 24 °C; self-association
[3] = molecular target: N-terminal domain of aciniform silk protein (AcSpN) from Nephila antipodiana, construct S15-E153 (renumbered S4-E142) (Nephila antipodiana); experiment: AUC; sedimentation velocity, 1.5 mg/mL protein, 20 mM phosphate, 300 mM NaCl, pH 5.85 and 5.50, 24 °C; self-association
[4] = molecular target: N-terminal domain of aciniform silk protein (AcSpN) from Nephila antipodiana, construct S15-E153 (renumbered S4-E142) (Nephila antipodiana); experiment: AUC; sedimentation velocity, 1.5 mg/mL protein, 20 mM phosphate, 150 mM NaCl, pH ≥ 7.0 (mutants and MaSpN at pH 7.0), 24 °C; self-association
[5] = molecular target: AcSpN A71R mutant (Nephila antipodiana) (Nephila antipodiana); experiment: AUC; sedimentation velocity, 1.5 mg/mL protein, 20 mM phosphate, 300 mM NaCl, pH 7.0-8.0 (mutants and MaSpN at pH 7.0), 24 °C; self-association
[6] = molecular target: AcSpN K122E mutant (Nephila antipodiana) (Nephila antipodiana); experiment: AUC; sedimentation velocity, 1.5 mg/mL protein, 20 mM phosphate, 150 mM NaCl, pH ≥ 7.0 (mutants and MaSpN at pH 7.0), 24 °C; self-association
[7] = molecular target: AcSpN K103E mutant (Nephila antipodiana) (Nephila antipodiana); experiment: AUC; sedimentation velocity, 1.5 mg/mL protein, 20 mM phosphate, 0 mM NaCl, pH 7.0-8.0 (mutants and MaSpN at pH 7.0), 24 °C; self-association
[8] = molecular target: N-terminal domain of major ampullate silk protein (MaSpN) from Nephila antipodiana, construct T1-E137 (Nephila antipodiana); experiment: SEC; Superdex 200 Increase 10/300 GL, 20 mM sodium phosphate pH 7.0, 50 mM NaCl, ~600 µM protein injected; self-association
[9] = molecular target: N-terminal domain of major ampullate silk protein (MaSpN) from Nephila antipodiana, construct T1-E137 (Nephila antipodiana); experiment: AUC; sedimentation velocity, 1.5 mg/mL protein, 20 mM phosphate, 0 mM NaCl, pH 7.0-8.0 (mutants and MaSpN at pH 7.0), 24 °C; self-association

stoichiometry N [1]: 2
Substance: AcSpN R107E mutant (Nephila antipodiana) (domain or fragment)

stoichiometry N [2]: 2
stoichiometry N [3]: 2
stoichiometry N [4]: 2
Substance: N-terminal domain of aciniform silk protein (AcSpN) from Nephila antipodiana, construct S15-E153 (renumbered S4-E142) (domain or fragment)

percent in a dimeric form [5]: 10%
Substance: AcSpN A71R mutant (Nephila antipodiana) (domain or fragment)

stoichiometry N [6]: 2
Substance: AcSpN K122E mutant (Nephila antipodiana) (domain or fragment)

stoichiometry N [7]: 2
Substance: AcSpN K103E mutant (Nephila antipodiana) (domain or fragment)

stoichiometry N [8]: 2
stoichiometry N [9]: 2
Substance: N-terminal domain of major ampullate silk protein (MaSpN) from Nephila antipodiana, construct T1-E137 (domain or fragment)

— PMC7352312
